Patent US20260085122A1 (BEONE MEDICINES I, published 2026)
Each block holds one binder with its values, some of them ahead of it.

Legend:
[1] = target: 2Ig-B7H3 (Cat: B73-H5253) (UniProt Q5ZPR3 29-245); test: SPR (Biacore 8K, 25 C), B7H3 captured by anti-human IgG, VHH as analyte, 1:1 model
Description: (§1) 4Ig-B7H3 (Cat: 11188-H02H) and 2Ig-B7H3 (Cat: B73-H5253) proteins were coupled onto a CM5 Biocore sensor derivatized via amine coupling with anti-human IgG antibody (Cat: 29234600). The VHH fragments were then flowed through at a rate at 40 μl/min. Association of VHH to B7H3 proteins was monitored for 120 seconds and disassociation of VHH in buffer 1×HBS (0.01 M HEPES, pH 7.4, 0.15 M NaCl, 3 mM EDTA, 0.05% v/v surfactant P20) was monitored for more than 120 seconds.
(§2) Ka and Kd were determined by fitting the real-time sensorgram to a 1:1 binding model using Biacore Insight Evaluation software. Binding disassociation equilibrium constants (KD) were calculated from kinetics rates as follows: […]

[2] = target: T1, 4Ig-B7H3 (Cat: 11188-H02H) (human); test: as above
T1 construct: also called B7H3-4IG; 4Ig-B7H3 proteins
Description: as §1, §2

T1 sequence (Q5ZPR3 29-461): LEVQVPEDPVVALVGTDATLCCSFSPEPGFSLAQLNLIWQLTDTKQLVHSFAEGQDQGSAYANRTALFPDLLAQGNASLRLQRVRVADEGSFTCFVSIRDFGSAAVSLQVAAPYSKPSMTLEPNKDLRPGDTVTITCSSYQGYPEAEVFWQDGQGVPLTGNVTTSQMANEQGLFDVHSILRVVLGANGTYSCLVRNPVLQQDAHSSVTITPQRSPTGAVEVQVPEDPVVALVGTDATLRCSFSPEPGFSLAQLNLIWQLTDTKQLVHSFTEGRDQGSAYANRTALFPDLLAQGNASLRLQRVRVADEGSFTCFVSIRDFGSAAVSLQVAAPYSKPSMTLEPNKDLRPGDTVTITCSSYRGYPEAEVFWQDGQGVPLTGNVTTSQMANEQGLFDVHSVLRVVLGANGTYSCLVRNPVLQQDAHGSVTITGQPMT
2Ig-B7H3 (Cat: B73-H5253), sequence (Q5ZPR3 other isoform, or with tags, fused parts or gaps): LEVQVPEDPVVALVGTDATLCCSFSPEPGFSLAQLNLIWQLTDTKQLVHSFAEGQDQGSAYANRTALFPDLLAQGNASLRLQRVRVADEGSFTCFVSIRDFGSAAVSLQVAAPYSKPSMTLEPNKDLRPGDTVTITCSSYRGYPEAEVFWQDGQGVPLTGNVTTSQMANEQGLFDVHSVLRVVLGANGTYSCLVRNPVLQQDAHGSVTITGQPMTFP

Kd [1]: 94.1 nM
koff [1]: 0.27 s⁻¹
kon [1]: 2.87e+06 M⁻¹ s⁻¹
Kd [2]: 7.41 nM
koff [2]: 0.00677 s⁻¹
kon [2]: 914000 M⁻¹ s⁻¹
B1: VHH1_C001 (VHH)
VHH: EVQLVESGGGLVQPGGSLRLSCAASPRTFQTYFMGWFRQAPGKELEWVSVINWSGGTSYYKDSVKGRFTISRDNSKNTLYLQMNSLRAEDTAVYYCAAKGSGTYDREGEYDYWGQGTLVTVSS
notes: Monovalent VHH fragment with C-terminal 6xHis-tag, no Fc

Kd [1]: 43.3 nM
koff [1]: 0.129 s⁻¹
kon [1]: 2.99e+06 M⁻¹ s⁻¹
Kd [2]: 3.89 nM
koff [2]: 0.0096 s⁻¹
kon [2]: 2.47e+06 M⁻¹ s⁻¹
B2: VHH1_C002 (VHH)
VHH: EVQLLESGGGLVQPGGSLRLSCAASGFTFSDYHMSWVRQAPGKGLEWVSGILNTGLSPTYAATVTGRFTISRDNSKNTLYLQMNSLRAEDTAVYYCAQGYYRATPSQANRGQGTLVTVSS
notes: as for B1
